Values belong to the substance of their own block, whether it stands above or below them.
Experiments:
[1] = target: human CD5 on human ACH2 immortalized T cells (human) (UniProt P06127); assay: cell-based or functional assay
[2] = target: mouse CD5 on murine T cells (mouse) (UniProt P13379); assay: cell-based or functional assay
Sequence of UniProt P13379 (P13379 24-494 limits assumed): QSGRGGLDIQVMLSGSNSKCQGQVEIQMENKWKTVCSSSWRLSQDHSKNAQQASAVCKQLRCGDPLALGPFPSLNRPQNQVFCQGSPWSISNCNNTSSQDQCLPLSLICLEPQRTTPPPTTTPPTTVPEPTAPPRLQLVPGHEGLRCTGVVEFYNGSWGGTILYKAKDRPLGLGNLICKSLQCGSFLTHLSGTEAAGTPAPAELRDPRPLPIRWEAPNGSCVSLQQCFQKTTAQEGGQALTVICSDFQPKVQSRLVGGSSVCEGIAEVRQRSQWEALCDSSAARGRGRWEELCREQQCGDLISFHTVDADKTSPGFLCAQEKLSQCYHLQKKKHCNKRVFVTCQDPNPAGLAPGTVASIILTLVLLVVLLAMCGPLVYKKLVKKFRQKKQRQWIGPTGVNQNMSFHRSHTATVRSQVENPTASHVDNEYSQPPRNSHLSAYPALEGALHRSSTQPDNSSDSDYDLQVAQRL

Sequence of UniProt P06127 (P06127 25-495 limits assumed): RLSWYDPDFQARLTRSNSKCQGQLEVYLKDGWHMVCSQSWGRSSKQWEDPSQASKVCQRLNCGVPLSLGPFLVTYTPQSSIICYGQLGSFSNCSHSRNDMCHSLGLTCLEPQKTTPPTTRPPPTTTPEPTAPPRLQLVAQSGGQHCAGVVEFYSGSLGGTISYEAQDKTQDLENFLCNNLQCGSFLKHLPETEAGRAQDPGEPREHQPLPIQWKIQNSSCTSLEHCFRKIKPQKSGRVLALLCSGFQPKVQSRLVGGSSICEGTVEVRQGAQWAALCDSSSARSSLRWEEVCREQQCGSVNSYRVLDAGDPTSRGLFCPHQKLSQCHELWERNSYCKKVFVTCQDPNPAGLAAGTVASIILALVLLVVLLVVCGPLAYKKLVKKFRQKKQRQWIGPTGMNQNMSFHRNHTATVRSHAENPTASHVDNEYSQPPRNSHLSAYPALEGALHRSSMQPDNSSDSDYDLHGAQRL

Substance: mouse anti-human CD5, clone UCHT2 (BioLegend), conjugated to LNP-mRNA (antibody)
- percent gene transfer (GFP) in human ACH2 T cells with CD5/LNP-GFP in vitro [1]: 89 to 93%

- percent of murine T cells receiving mRNA in vitro from IgG/LNP (flow cytometry) [2]: 7%
Substance: control isotype matched IgG conjugated to LNP-mRNA (antibody)

- ZsGreen expression in CD4+ splenocytes of Ai6 mice 24 h after 30 ug CD5/LNP-Cre [2]: 81.1%
- ZsGreen expression in CD8+ splenocytes of Ai6 mice 24 h after 30 ug CD5/LNP-Cre [2]: 75.6%
- percent FAPCAR T cells in spleen 48 h after CD5/LNP-FAPCAR injection [2]: 17.5 to 24.7%
- percent of murine T cells expressing FAPCAR after 48 h in vitro with CD5/LNP-FAPCAR (flow cytometry) [2]: 83%
- percent of murine T cells expressing GFP after 48 h in vitro with CD5/LNP-GFP (flow cytometry) [2]: 78%
Substance: purified rat anti-mouse CD5, clone 53-7.3 (BioLegend), conjugated to LNP-mRNA (antibody)
